Laboratory results from the RNAGym collection of RNA variant scans (doi:10.7554/elife.80360).

B1: Hairpin Ribozyme (parent)
chain: GUCCUCUUUCACGUGCGCGUGAAAGAGAGAAGUGAACCAGAGAAACACACGUUGUGGUAUAUUACCUGGUA

Variants of: B1
Assay: self-cleavage, relative activity (ratio to wild type); higher = more cleavage; co-transcriptional
GUCCUCUUUCACGUGCGCGUGAAAGAGAGAAGUGAACCAGAGCAACACACGUUGUGAUAUAUUACCUGGUA showed a self-cleavage of 0.137. GUCCUAUUUCACCUGCGCGUGAAAGAGAGAAGUGAACCAGAGAAACACACGUUGUGGUAUAUUACCUGGUA gave a self-cleavage of 0.341. With GUCCACUUUCACGUGCGCGUGAUAGAGAGAAGUGAACCAGAGAAACACACGUUGUGGUAUAUUACCUGGUA the self-cleavage was 0.323. In the case of GUCCUCUUUCACGUGCGCGUGAUAGAGGGAAGUGAACCAGAGAAACACACGUUGUGGUAUAUUACCUGGUA, the self-cleavage is reported as 0.956. In the case of GUCCUCCUUCACGUGCGCGCGAAAGAGAGAAGUGAACCAGAGAAACACACGUUGUGGUAUAUUACCUGGUA, the self-cleavage is reported as 1.14. Work on GUCCUCUUUCACGUGCUCGUGAAAGAGAGAAGUGAACCAGAGAAACACACGUUGUGGUAUAUUACGUGGUA yielded a self-cleavage of 0.158. GUCCUCUUUGACUUGCGCGUGAAAGAGAGAAGUGAACCAGAGAAACACACGUUGUGGUAUAUUACCUGGUA gave a self-cleavage of 0.528. In the case of GUUCUCUUUCACGUGCGCGUGAAAGAGAGAAGUGAACCAGAGAAACACACGUUGUGGUAUAGUACCUGGUA, the self-cleavage is reported as 0.259. Variant GUCCUCUUUCACGUGCGCGUGAAAGAGAGAAGUGGACCAGAGAAACACACGUUGUGGAAUAUUACCUGGUA has a self-cleavage of 0.73. In the case of GUCCUCUUUCACGGGCGCGUGAAAGAGUGAAGUGAACCAGAGAAACACACGUUGUGGUAUAUUACCUGGUA, the self-cleavage is reported as 0.39. With GUCCUCUUUCACGUGCGCGUGAAAGAGCGAAGUGAACCAGAGAAACACACGUUGUGUUAUAUUACCUGGUA the self-cleavage was 0.0228. In the case of GUCCUCUUUCACGUGCGCGUGAAAGAGAGAAGUGAACCAGGGAAACACACGUUGUGGUAUAUUACCUCGUA, the self-cleavage is reported as 0.508. Work on GUCCUCUUUCACGUUCGCGUGAAAGAGAGAAGUGAACCAGAGAAACACACGUUGUGCUAUAUUACCUGGUA yielded a self-cleavage of 0.128. GUCCUCUUUCACGUGCGCGUGAAAGAGAGAAGUGAACCGGAGAAACACACGUUGUGGUAUAUUACCUCGUA showed a self-cleavage of 0.103. In the case of GUCCUCUUUCAAGUGCGGGUGAAAGAGAGAAGUGAACCAGAGAAACACACGUUGUGGUAUAUUACCUGGUA, the self-cleavage is reported as 0.872. Work on GUCCUCUUUCACGUGCGCGUGAAAGAGAGAAGUGAACCAGAGAAACAGACUUUGUGGUAUAUUACCUGGUA yielded a self-cleavage of 0.17. With GUCCUAUUUCACGUGCGUGUGAAAGAGAGAAGUGAACCAGAGAAACACACGUUGUGGUAUAUUACCUGGUA the self-cleavage was 0.708. Variant GUCCUCUUUCACGUGCGCGUGAAAGAGAGAAGUGAACUAGAGAAACACACGUUGUGGCAUAUUACCUGGUA has a self-cleavage of 0.544. Variant GUCCUCUUUCACGUGCGCGUGGAAGAGAGAUGUGAACCAGAGAAACACACGUUGUGGUAUAUUACCUGGUA has a self-cleavage of 0.226. For GUCCUCUUUCACGUGCGCGUGAAAAAGAGAAGUGAACCAGAGACACACACGUUGUGGUAUAUUACCUGGUA, the self-cleavage was 0.139. GUCCUCAUUCACGUGCGCGUGAAAGAGAGAAGUGAACCAGAGAAACACACGUUGUGGUACAUUACCUGGUA gave a self-cleavage of 0.923. In the case of GUCCUCUGUCACGUGCGCGUGAAAGAGAGAAGUGAACCAGAGGAACACACGUUGUGGUAUAUUACCUGGUA, the self-cleavage is reported as 0.132. With GUCCUCUAUCACGUGCGCGUGAAAGAGAGAAGUGGACCAGAGAAACACACGUUGUGGUAUAUUACCUGGUA the self-cleavage was 0.483. GUCCUCUUUCACUUGCGCGUGAAAGAGAGAAGCGAACCAGAGAAACACACGUUGUGGUAUAUUACCUGGUA showed a self-cleavage of 0.102. For GUCCUCUUUCACGUGCGCGUGAAUGAGAGAAGUGAACCAGAGAAACACACGUUGCGGUAUAUUACCUGGUA, the self-cleavage was 0.11. Variant GUCCUCUUUCACGUGCGCCUGAAAGAGAGAAGUGAACCAGAGAAACACACGUUGUGGUAAAUUACCUGGUA has a self-cleavage of 0.9. For GUCCUCUUUCGCGUGCGCGUGAAAGAGAGAAGUCAACCAGAGAAACACACGUUGUGGUAUAUUACCUGGUA, the self-cleavage was 1.3. GUUCUCUUUCACGUGCUCGUGAAAGAGAGAAGUGAACCAGAGAAACACACGUUGUGGUAUAUUACCUGGUA showed a self-cleavage of 0.473. Work on GCCCUCUUUCACGUGCGCGUGAAAGAGAGAAGUGAACCAGAGAACCACACGUUGUGGUAUAUUACCUGGUA yielded a self-cleavage of 0.0982. GUCCUCUUUCACGUGCGCGUGAAAUAGAGAAGUGAACUAGAGAAACACACGUUGUGGUAUAUUACCUGGUA gave a self-cleavage of 0.332. GUCCUCUUUCACGUGCGCGUGAAAGAGAGAAGUGAACCAGAGAAACACACGUUCUGGUAUAUUACCUGGAA showed a self-cleavage of 0.216. In the case of GUCCUCUUUCACGUGCGCGUGAAAGAGAUAAGUGAACCACAGAAACACACGUUGUGGUAUAUUACCUGGUA, the self-cleavage is reported as 0.0749. With CUCCUCUUUCACGUGCGCGUGAAAGAGAGAACUGAACCAGAGAAACACACGUUGUGGUAUAUUACCUGGUA the self-cleavage was 0.116. GUUCUCUUUCACGUGCGCGUGAAAGAGAGAAGUGAACCAGAGAAACACACGUUGUGGUAUAUUACCUCGUA showed a self-cleavage of 0.142. Variant GUCCUCUUUCAUGUGCGCGUGAAAGAGAGAAGUGAACCAGAGAAACACACGUUAUGGUAUAUUACCUGGUA has a self-cleavage of 0.587. GUCCUCUUUCACGUGCGCGUGAAAGAGAGAAGUGAACCAGAGAAGCACACGUUGUGGUAUAUUACCUGGUA showed a self-cleavage of 0.177. GUCCUCUUCCACGUGCGCGUGAAAGAGAGAAGUGCACCAGAGAAACACACGUUGUGGUAUAUUACCUGGUA showed a self-cleavage of 0.602. Variant GUCCUCUUUCACGUGCGCGUGAAAGAGAGAAGUGAACCAGUGAAACACACGUUGUGAUAUAUUACCUGGUA has a self-cleavage of 0.145. For GUCCUCUUUCACGUGCGCGUGAAAGAGAGAAGUGAACCAGAGAAAGACACGUUGUGGUAUAUUACCUGAUA, the self-cleavage was 0.179. GUCCUCUUUCACGUGCGCGUGAAAGAGAGAAGUCAACCAGAGAAACACACGUUCUGGUAUAUUACCUGGUA gave a self-cleavage of 0.735. Work on GUCCUCUUUCACGUGCGCGUCAAAGAGAGAAGUGAACCAGAGAAACCCACGUUGUGGUAUAUUACCUGGUA yielded a self-cleavage of 0.254. Work on GUCCUCUUUCAAGUGCGCGUGAAAGAGAGAAGUGAACCAGAGAAACAUACGUUGUGGUAUAUUACCUGGUA yielded a self-cleavage of 0.112. GACCUCUUUCACGUGCGCGUGAAAGAUAGAAGUGAACCAGAGAAACACACGUUGUGGUAUAUUACCUGGUA gave a self-cleavage of 0.124. For GUCCUCUUUCACGUGCGCGUGAAAGAGAGACGUGAACCAGAGAUACACACGUUGUGGUAUAUUACCUGGUA, the self-cleavage was 0.109. In the case of GUCCUCUUUCACGUGCGCGUGAAAGAGAGAAGUGAACCAGAGAAACACACGUUGUGGUAAAUUACCGGGUA, the self-cleavage is reported as 0.187. GUCCUCUUUCACGUGCGCGUGAAAGAGAGAAGUGAACCAGAGAAGCACACGUUGUGGUAUAUUAGCUGGUA showed a self-cleavage of 0.168. Work on GUCCUCUUUCACGUGCGCGUGAAAGAGAGAAGUGAGCCAGAGAAACACACGUUGUGUUAUAUUACCUGGUA yielded a self-cleavage of 0.317. In the case of GUCCUCUUUCACGUGCGCGUGAAAGAGAGAAGUGAACCAGAGACAGACACGUUGUGGUAUAUUACCUGGUA, the self-cleavage is reported as 0.0995. GUCCUCUUUCACGUGCGCGUCAAAGAGAGAAAUGAACCAGAGAAACACACGUUGUGGUAUAUUACCUGGUA showed a self-cleavage of 0.141. In the case of GUUCUCUUCCACGUGCGCGUGAAAGAGAGAAGUGAACCAGAGAAACACACGUUGUGGUAUAUUACCUGGUA, the self-cleavage is reported as 0.387. For GUCCUCUUUCACGUGCGCGUGCAAGAGAGAAGUGAACCAGAGAAACACCCGUUGUGGUAUAUUACCUGGUA, the self-cleavage was 0.264. Variant GUCCUCUUUCACGUGCGCGUGAAAGAGAGAAGUGAACCAGUGAAACACACGUUGUGGUAGAUUACCUGGUA has a self-cleavage of 1.15. For GUCCUCUUUCACGUGCGCGUGAAAGAGAGAAGUGAACCAGAGAAACACACGUUGUGGUUUAUUACCUCGUA, the self-cleavage was 0.0787. GUCCUCUGUCACGUGCGCGUGAAAGAGAGAAGUGAACCAGAGAAACACACGUUGCGGUAUAUUACCUGGUA showed a self-cleavage of 0.232. For GUCCUCUUUCACGUCCGCGUGAAAGAGAGAAGUGAACCAGAGAAACACACGUUGUGGUAUAUUACCUGGAA, the self-cleavage was 0.848. Work on GUCCUCUUUCACGUGAGCGUGAAAGAGAGAAGUGAACCAGAGAAACACACGUUGUGGUAUAUUACAUGGUA yielded a self-cleavage of 0.108. Work on GUCCUCUUUCACGUGCGCGUGAUAGAGAGAAGUGAACCAGAGAAACACACGUUGUGGAAUAUUACCUGGUA yielded a self-cleavage of 0.539. Variant GUCCUCUUUCACGUGCGCGUGAAGGAGAGAAGUGAACCAGAGAAACACACGUUGGGGUAUAUUACCUGGUA has a self-cleavage of 0.193. With GUCCUCUUUCACGUGCGCGUGUAAGAGAGAAGUGAACCAGAGAAACACUCGUUGUGGUAUAUUACCUGGUA the self-cleavage was 0.293. GUCAUCUUUCACGUGCGCGUGAAAGAGAGAAGUGAACCAGAGAAACACACGUUUUGGUAUAUUACCUGGUA gave a self-cleavage of 0.118. In the case of GUCCUCUUUCACGUGCGCGUGAAAUAGAGAGGUGAACCAGAGAAACACACGUUGUGGUAUAUUACCUGGUA, the self-cleavage is reported as 0.385. Variant GUCCUCUUUCACGUGCGCGUGAAAGAGAGAAGUGAACCAGAGCAACACACGUUGUGGUAUAUUACCUCGUA has a self-cleavage of 0. Work on GUCCUCUUACACGUGCGCGUGAAAGAGAGAAGUGAACCAGAGAAACACACGUUGUGGUAUAUUGCCUGGUA yielded a self-cleavage of 0.284. GUCCUCUUUCACGUGCGCGUGAAAGAGAGAAGUGAACCAGAGAAACACAAGUUCUGGUAUAUUACCUGGUA showed a self-cleavage of 0.375. GUCCUCAUUCACGUGCGCGUGAAAGAGAGAAGAGAACCAGAGAAACACACGUUGUGGUAUAUUACCUGGUA gave a self-cleavage of 0.218. Work on GUCCUCUUUCACGUGCGCGUGAAAGAGAGAAGUAAACAAGAGAAACACACGUUGUGGUAUAUUACCUGGUA yielded a self-cleavage of 0.267. Variant GUCCUCUUUCACGUGCGCGUGAAAGAGAGAAGUGAACCAGAGAAACACAUGUUGUGUUAUAUUACCUGGUA has a self-cleavage of 0.183. In the case of GUCCUCUUUCACGUGCGCGUGUAGGAGAGAAGUGAACCAGAGAAACACACGUUGUGGUAUAUUACCUGGUA, the self-cleavage is reported as 0.76. Variant GUCCUCUUUCACGUGCGCGUGAAGGAAAGAAGUGAACCAGAGAAACACACGUUGUGGUAUAUUACCUGGUA has a self-cleavage of 0.401. GUCCUCUUUCACGUGCGCGUGAAAGAGAGAAGUGAACCAGAGAAACACACGUUGUGCUAUAGUACCUGGUA showed a self-cleavage of 0.155. For GUCCUCUUUCACGUGCGCGUGAAAGAGAGAAGUGAACCAGAGAGACACACAUUGUGGUAUAUUACCUGGUA, the self-cleavage was 0.123. GUCCUCUUUCACGUGCGCGUGAAAGAGAGAAGUGAACCCGAGAAACACACGUUGUGGUAUACUACCUGGUA showed a self-cleavage of 0.161. With GUCCUCUUUCACGAGCGCGUGAAAGAGAGAAGUGAACCAGAGAAACACACGUUGUUGUAUAUUACCUGGUA the self-cleavage was 0.205. In the case of GUCCUCUUUCACGUGCGCGUGAAAGAGAGAAGUGAACCAGAGAAACACACGUUGUGGUGUAUUACAUGGUA, the self-cleavage is reported as 0.228. GUCCUCUAUCACGUGCGCGUGAAAAAGAGAAGUGAACCAGAGAAACACACGUUGUGGUAUAUUACCUGGUA gave a self-cleavage of 0.432. GUCCUCUUUCACGUGCGCGUGAAAGAGAGAAGUGAACCAGAGAAACACACGUCGUGGUAUAUUUCCUGGUA showed a self-cleavage of 0.
